In experiment [1] the target is Cell-surface full length amyloid precursor protein (APP) on HEK293T cells transfected with wild type APP DNA (UniProt P05067). The experiment can be described thus: FMAT ABI8200, HEK293T cells transfected with wild type APP, mock subtracted; Experiment 1.
The target is the same in experiment [2]. Put plainly: FMAT ABI8200, HEK293T cells transfected with wild type APP, mock subtracted; Experiment 2.

Sequence of Cell-surface full length amyloid precursor protein (APP) on HEK293T cells transfected with wild type APP DNA (P05067 18-770): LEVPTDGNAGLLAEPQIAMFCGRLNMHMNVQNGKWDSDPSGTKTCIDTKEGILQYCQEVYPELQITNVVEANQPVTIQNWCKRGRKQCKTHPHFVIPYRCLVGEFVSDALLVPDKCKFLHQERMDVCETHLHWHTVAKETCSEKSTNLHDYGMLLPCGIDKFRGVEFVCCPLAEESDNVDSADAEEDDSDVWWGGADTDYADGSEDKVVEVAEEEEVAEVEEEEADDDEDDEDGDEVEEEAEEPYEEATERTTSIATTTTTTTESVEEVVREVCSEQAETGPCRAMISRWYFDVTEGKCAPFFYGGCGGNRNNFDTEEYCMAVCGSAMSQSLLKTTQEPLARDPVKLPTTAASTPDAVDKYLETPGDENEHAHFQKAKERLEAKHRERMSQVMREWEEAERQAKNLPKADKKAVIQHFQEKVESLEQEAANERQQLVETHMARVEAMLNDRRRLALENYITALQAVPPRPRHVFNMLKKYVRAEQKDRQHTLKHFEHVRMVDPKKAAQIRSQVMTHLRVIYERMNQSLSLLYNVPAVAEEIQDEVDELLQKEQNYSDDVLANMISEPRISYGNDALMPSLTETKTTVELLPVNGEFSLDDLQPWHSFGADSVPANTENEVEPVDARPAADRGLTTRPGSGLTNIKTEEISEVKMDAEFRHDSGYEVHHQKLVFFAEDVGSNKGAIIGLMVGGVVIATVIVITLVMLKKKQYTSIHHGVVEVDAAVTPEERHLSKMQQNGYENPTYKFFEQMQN

With “Antibody G210 which recognises the x-40 form of the β-amyloid peptide”, the values for the % of LN27 binding in experiment [1] and in experiment [2] were 5.5% and 2%, respectively.

In the case of “LN27 (Zymed) mouse IgG to extracellular domain of APP (antibody)”, the % of LN27 binding in experiment [1] and in experiment [2] was 100% in each case.

For the origin of these results see patent US20110064740A1.
